The values that follow come from the nanobody polyreactivity screen of Harvey et al. (2022).

The data set in a line: yeast display, Sf9 membrane polyspecificity reagent, FACS + sequencing; frameworks hold sequencing errors. In outline:
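A synthetic nanobody library was expressed on Saccharomyces cerevisiae BJ5465 by galactose induction for 36–48 hours. The library was stained for 1 hour at 4 °C with 10% biotinylated, detergent-solubilized Sf9 membrane reagent and enriched with streptavidin microbeads before FACS. Low and high (top ~1%) gates were set on anti-HA fluorescence for expression and streptavidin fluorescence for reagent binding, and each polyreactivity label reflects the gate of origin.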
Regarding “QVQLVESGGGLVQAGGSLRLSCDASGSTIKYYAMGWYRQAPGTEMELVARITSDCGSTFYADSVKGRFTISRDNAKNTVYLLMNRLKPEDTAVYYCNTDYAFRHCWFYPMDYWGQGTQVTVSS”, the “polyreactivity (PSR sort gate)” value is reported as “high polyreactivity”.
In the case of “QVQLVESGGGLVQAGGSLRLSCDASGYIFSANAMGWYRQSPGKERELVAAITSSGGSTYYADSVKGRFTISRDNAKNTVYLQMNSLKPEDTAVYYCAAYSIYYRSGYPSRYRYYYWGQGTQVTVSS” it was “high polyreactivity”.
As for “QVQLVESGGGLVQAGGSLRLSCDPSGLTFNTYAMGWYRQAPGKERELVAAISSDGSTYYADSVKGRFTITRDNAKNTVYLQMNSLKPEDTAVYYCAATSFWWDLAGYYHWYDYWGQGTQVTVSS”, the “polyreactivity (PSR sort gate)” value is listed as “high polyreactivity”.
“QVQLVESGGGLVQAGGSLRLSCDPSGSIFDGYGMGWYRQAPGKERELVASITWNDGSTYYADSVKGRFTISRDNAKNTVYLQMNSLKPEDTAVYYCAADQWGYEYDYWGQGTQVTVSS”: the “polyreactivity (PSR sort gate)” value is recorded as “low polyreactivity”.
In the case of “QVQLVESGGGLVQAGGSLRLSCEASGRTFDTYAMGCYRQAPGKERELVAAITTSGGTTYYADSVKGRFTISRDNAKNTVYLQMNSLKPEDTAVYYCAADPWIEYTYGSKAYYYWGQGTQVTVSS” it was “low polyreactivity”; in that of “QVQLVESGGGLVQAGGSLRLSCEASGSTFYRYAMGWYRQAPGKERELVDAISSSGGSTYYADSVKGRFTISRDNAKNTVYLQMNSLKPEDTAVYYCNASYRVRRFDYWGQGTQVTVSS”, “low polyreactivity”; in that of “QVQLVESGGGLVQAGGSLRLSCEDSGFIFRVYAMGWYLQAPGKERELVAAINSGGSTNYADSVKGRFTISRDNAKNTVYLQMNSLKPEDTAVYYCAARVKTSYRYLRTYNYCGQGTQVTVSS”, “high polyreactivity”.
With “QVQLVESGGGLVQAGGSLRLSCGASGITFVRYAMGWYRQAPGKERELVAAITTSGGSTYYADSVKGRFTISRDNAKNTVYLQMNSLKPEDTAVYYCAARANAASGTFKYWGQGTQVTVSS” the entry was “high polyreactivity”; with “QVQLVESGGGLVQAGGSLRLSCGASGLTCREYAMGWYRQAPGKERELVAAITSTGGNTYYADSVKGRFPISRDNAKNTVYLQMNSLTPEDTAVYYCAARTTRRVTSGKFDYWGQGTQVTVSS”, “high polyreactivity”.
In the case of “QVQLVESGGGLVQAGGSLRLSCGASGRIFWDNAMGWYRQAPGKERELVAAIDYRGGNTNYADSVKGRFTISRDNAKNTVYLQMNRLKTEDTAVYYCNAEWAVRYPGYDYWGQGTQVTVSS” it was “low polyreactivity”; in that of “QVQLVESGGGLVQAGGSLRLSCGASGRTVGGNAMGWERPAPGQERELVAAITNSASTYADSVKGRFTISRDNAQNTVYLLMNSLKPEDTAGSYCAARTLPRVYRNTFGYWGQGTQVTVSS”, “low polyreactivity”; in that of “QVQLVESGGGLVQAGGSLRLSCGASGSIIGSYALGWYRQAPGPERELVAAISSSGGRTYYAVSVKGRFTISRDKAKNTVYLQMNRLKPAETAVYYCNTRPGTVFRAGGDDWGQGTQVTVSS”, “high polyreactivity”.
“QVQLVESGGGLVQAGGSLRLSCGASGSSFADNAMGRYRPATGTERELVDTNTGSGGSTYYADSVKGRFTISRDNAKNTVYLLMNSLKPEDTAVYYCAAEVVAWSLYEDFKTYDYWGQGTQVTVSS”: the “polyreactivity (PSR sort gate)” value is “low polyreactivity”.
On to “QVQLVESGGGLVQAGGSLRLSCGASGYISVGYAMGWYRPAPGKERELVAAITESGGSTYYADSVKGRFTISRDNAKNTVYLQMNSLKPEDSAVYYCAADVIYEDSMDYWGQGTQVTVSS”, for which the “polyreactivity (PSR sort gate)” value is “low polyreactivity”.
With “QVQLVESGGGLVQAGGSLRLSCPASGFIFRYYAMGWYRQAPGKERELVAAISWSGGSTYYADSVKGRFTISRDSAKNTVYLQIYSLKPEDTAVYYCGAEGFSYFIYWGQGSQVTVSS”, the “polyreactivity (PSR sort gate)” value is recorded as “high polyreactivity”.
Take “QVQLVESGGGLVQAGGSLRLSCPASGFNFPYYAKGWYRQAPGKEREFVAAISSGGNTNYADSVKGRFTISRDNAKNTVYLQMNSLKPEDTAVFYCAAGFLRYLNWSVKYDYWGQGTQVTVSS”: the “polyreactivity (PSR sort gate)” value is reported as “low polyreactivity”.
With “QVQLVESGGGLVQAGGSLRLSCPASGFTFVSYAMGWYRQAPGKERELVAAISRSGGTTYYADSVKGRFTISRDNAKNTVYLQMNSLKPEDTAVYYCAADFYVFYTRYYYWGQGTQVTVSS” the entry was “low polyreactivity”; with “QVQLVESGGGLVQAGGSLRLSCPASGIILTQNAMGWYRQAPGKERELVAAITESGARTYYADSVKGRFTISRDNAKNTVYLQMISLKPEDTAVYSCNAYRYYRGQVYPFYYWGHGTQVTVSS”, “low polyreactivity”; with “QVQLVESGGGLVQAGGSLRLSCPASGLIFVDNAMGWYRQAPGKERELVAAIDSGGSTNYADSVKGRFTISRDNAKNTVYLQMNRLQPEDTAVYYCAADGIYAPWYYQESVEYYFWGQGTQVTVSS”, “low polyreactivity”.
With “QVQLVESGGGLVQAGGSLRLSCPASGLTFGWYAMGWYRQAPGKERELVASITRRSGSTYYADSVKGRFTISRDNAKNTVYLQMNSLKPEDTAVYFWAARSRGTTRFDYWGQGTQVTVSS”, the “polyreactivity (PSR sort gate)” value is on record as “high polyreactivity”.
Consider “QVQLVESGGGLVQAGGSLRLSCPASGRIFGTYPMGWSRQEPGKESELVARITRGSSTYYADSVKGRFTISRDNAKNTVYLQMNSLKPEDTAVYYCAAVGWGYSYRARYGYWGQGTQVTVSS”, for which the “polyreactivity (PSR sort gate)” value is “high polyreactivity”.
With “QVQLVESGGGLVQAGGSLRLSCPASGRIFPKNAMGWYRQAPGKERELVAAIDYSDGSTNYADSVKGRFTFSRDTAKNTVYLQMNSLKPDDTAVYYCAIVAVPSYDYWGQGTKVTVSS”, the “polyreactivity (PSR sort gate)” value is recorded as “low polyreactivity”.
For the sequence “QVQLVESGGGLVQAGGSLRLSCPASGRIFSFYALGGYRQAPGKERELVAAITYTDGSTYADSVKGRFTISRDNAKNTVYLQMNSLKPEDTAVYYCNAYRGWLLSREMDYWGQGTQVTVSS”, the “polyreactivity (PSR sort gate)” value was “low polyreactivity”.
Consider “QVQLVESGGGLVQAGGSLRLSCPASGRIFTYYTMGWYRQAPGKERELVASITGGGGRTYYADSVKGRFTISRDNAKNTVYLQMNSLKPEDTAVYYCNDRYPYPYWYTSYDYWGQGSQVTVSS”, for which the “polyreactivity (PSR sort gate)” value is recorded as “high polyreactivity”.
On to “QVQLVESGGGLVQAGGSLRLSCPASGRILWFYAMGWYRQAPGKERELVAAISWNGGSTYYADSVKGRFTISRDNAKNTVYLQMNSLKPEDTAVYYCNKDPSVEWWFDYWGQGTQVTVSS”, for which the “polyreactivity (PSR sort gate)” value was “low polyreactivity”.
Take “QVQLVESGGGLVQAGGSLRLSCPASGRTFSRNAMGRYRQAPGKERELVATISRRGGSTNYADSVKGRFTISRDNAKNTVYLQMNSLIPEDTAVYYCAAGYRVRDDKVYGIVGAMDYWGQGTQVTVSS”: the “polyreactivity (PSR sort gate)” value was “high polyreactivity”.
In the case of “QVQLVESGGGLVQAGGSLRLSCPASGRTFWYYAMGWYRQAPGKVRELVAAITWSGSDTYYADSVKGRFTISRDNAKNTVYVQMNSLKPEDTAVYFCAAEYYYESSGYDYWGQGTQVTVSS” it was “high polyreactivity”.
As for “QVQLVESGGGLVQAGGSLRLSCPASGRTFYTNAMGWYRHAPGKERELVAAITRGGSTYYADSVKGRFTISRDNAKNTVYLQMYSLKPEDTAVYYCAAAYASSWRQRVTSEKGYYWGQGTQVTVSS”, the “polyreactivity (PSR sort gate)” value is “high polyreactivity”.
In the case of “QVQLVESGGGLVQAGGSLRLSCPASGSIFYTNAMGWYRQAPVKERELVAAISRGGSTKYADSVKGRFTISRDNAKNSVYLQMNSLKPEDTAVYYCAARGTASRYLYIPYYYWGQGTQVTVSS” it was “high polyreactivity”; in that of “QVQLVESGGGLVQAGGSLRLSCPASGSIYASNTMGWYRQAPGKERELVSGITKIGSSTYYADSVKRRFTISRDNAKNTVYLQMNSLKPEDTAVYYCNAYGPTIYSSRYDYWGQGTQVTVSS”, “low polyreactivity”.
In the case of “QVQLVESGGGLVQAGGSLRLSCPASGSTFGYYAMGWYRQAPGKERELVAAITYSVGGTYYADSVKGRFTISRDNAKNTVYLQMNSLKPEDTAVYSCNVDYYVPPAGVTRTGDDDYWGQGTQVTVSS” it was “low polyreactivity”; in that of “QVQLVESGGGLVQAGGSLRLSCPASGSTFKRNAMGWYRQAPGKERELVATITRRGGSTYADSVNGRFTISRDNAKNTVYLQMNSLKAEDTAVYYCARDGFSAGMDYWGQGTQVTVSS”, “low polyreactivity”; in that of “QVQLVESGGGLVQAGGSLRLSCPASGSTLAWYTMGWYRQAPGKEREFVAVITGSGGSTFYADSVKGRFTISRDNAKNTVYLQMNSLKPEDTAVYYCAADYLYYVTQHRRFHLDYWGQGTQVTVSS”, “low polyreactivity”.
In the case of “QVQLVESGGGLVQAGGSLRLSCPASGSTLVYNDMGWYRQAPGKEREFVAAIRSNDGSTYYADSVKGRFTISRDNAKNTVYLQMNSLKPEDTAVYYCNKDVWDGYDWPEFDYWGQGTQVTVSS” it was “low polyreactivity”; in that of “QVQLVESGGGLVQAGGSLRLSCPASGSTQHYYVKAWYRQAQGKERELVAAITWSGVSTYYADSVKGRFTISRDNAKNTVYLQMNSLKPEDTAVYYCAKRIFTSARLNYWGKGTQVTVSS”, “high polyreactivity”; in that of “QVQLVESGGGLVQAGGSLRLSCSASGFIFGTNTMGWYRQAPGKEWELVAAITSVGSTNYADSVKGRFTISRDNAKNTVYLQMNSLKPEDTAVYYCPATLYYQYGGDYWGQGTQVTVSS”, “low polyreactivity”.
With “QVQLVESGGGLVQAGGSLRLSCSASGFIFLDYAMGLYRQAPGKERELVAAISSRGARTYYADSVKGRFTISRDNAKNTVYLQMNSLKPEDTAVYYCAARGPHDRYGYWGQGNQVTVSS”, the “polyreactivity (PSR sort gate)” value is “high polyreactivity”.
In the case of “QVQLVESGGGLVQAGGSLRLSCSASGFTFSWYAMGWYRQAPGKDRELVAAINADGGTTYYADSVKGRFTISRDNAKNTVYLQMNSLKPEDTAVYYCADELSVDKYDYWGQGTQVTVSS” it was “low polyreactivity”; in that of “QVQLVESGGGLVQAGGSLRLSCSASGFTFYVNAMGWYRQAPGKERELVAAITDDGDSTYYADSVKGRFTISRDNAKNTVYLQMNSLKPEDTAVYYCKTVYGPDLDGTEYDYWGQGTQVTVSS”, “low polyreactivity”.
With “QVQLVESGGGLVQAGGSLRLSCSASGIIYKSYAMGWYRQAPGKERELVAAISGGGDTYYADSVKGRFTISRDNAKNTVYLQMNSLKPEDTAVYYCNTDGSQGTIIAIFVKYDYWGQGTQVTVSS” the entry was “low polyreactivity”.
